{
  "source": "the DeepSol protein solubility set",
  "data": [
    {"assay": "soluble on expression in E. coli; label from the status in PepcDB or PDB records", "values": [
      {"sequence": "MAKYEILFKQLRLAILRGEYAPNDRLPSENAIAIKHGVSRITSKRALNELAAADLVYRVRGGGTFVKPHKSTTQRQILLVLPFPETTSFGDYPSGIQGTLAGTTWQLKLMANERFIQLNLDELASQYAGIIYYPQNLATELPILMRLYAQKMPLVVLDKQPAALAVPSVTSDNVAGGKIACEHLQSRGHHRIAFLPETPFWQTFTGTVSDRFLGYFNHLKLATSDAALPLRWAQALQACTTAVQLKAYIQAQRITAIIAENDVVALRALQRIQELTSNSDTSIALVGFDNLPAAARNNPALTTVVQDFAAIGAKAVEALLDQINNPEHLFDDQIVVGVKLMVRSSTNQY", "soluble on expression in E. coli": "not soluble"},
      {"sequence": "MALILTFLGKSGVARTKIAIAAAKLLASQGKRVLLAGLAEPVLPLLLEQTLTPDPQQIAPNLEVVQFQSSVLLERNWEEVKKLEAQYLRTPIIKEVYGQELVVLPGMDSALALNAIREYDASGKYDAIVYDGTGDAFTLRMLGLPESLSWYVRRFRQLFVNSDLGKTIAESPLIQPLISSFFNVNWTADNFAQPTNQVNNFLDKGKEALADPKRVAAFLVTTADPLEVVSVRYLWGSAQQIGLTIGGVIQVSSQTEGDLSAEFTPLEHHHHHH", "soluble on expression in E. coli": "not soluble"},
      {"sequence": "MALIQSCSGNTMTTDTIVAQATAPGRGGVGIIRVSGPLAAHVAQTVTGRTLRPRYAEYLPFTDEDGQQLDQGIALFFPNPHSFTGEDVLELQGHGGPVVMDMLIRRILQIKGVRPARPGEFSERAFLNDKMDLTQAEAIADLIDASSEQAAKSALQSLQGEFSKRIHTLVESLIHLRIYVEAAIDFPEEEIDFLADGKVSADLQTIIDNLAAVRREANQGAIMREGMKVVIAGRPNAGKSSLLNALSGKESAIVTDIAGTTRDVLREHIHIDGMPLHIIDTAGLRDASDAVEKIGIERAWEEIRQADRVLFMVDGTTTEATDPQDIWPDFVDKLPENIGITVIRNKADQTGEPLGICHVNQPTLIRLSAKTGQGVDALRQHLKECMGFSGNQEGGFMARRRHLDALERAAEHLAIGQQQLEGYMAGEILAEELRIAQQHLNEITGEFSSDDLLGRIFSSFCIGK", "soluble on expression in E. coli": "not soluble"},
      {"sequence": "MALKDRFDKIISYFDTDDVSENEVHEVQERTSVQRDSRAATAQEASQRSHMTNSAEEEMIGSRPRTYTYDPNRQERQRVQRDNAYQQATPRVQNKDSVRQQREQVTIALKYPRKYEDAQEIVDLLIVNECVLIDFQYMLDAQARRCLDYIDGASRVLYGSLQKVGSSMFLLTPANVMVDIEEMNIPKTGQETSFDFDMKRRLEHHHHHH", "soluble on expression in E. coli": "not soluble"},
      {"sequence": "MALLTKVTWNNIGMHQPQTNWYKGVWFPYSTPKYSFLLWLTIQNRLSTGDHIKAWNSGQQVTCTLCGNAEETRNLLFFSCHYTSEVWRTLTQRLLSNDYSRDWNRLLPLLCNTNMPTDLLFLFRYVFQASVYHIWRERNARRHGEISSPPNRLIKFIDKNVRNRINSIRDTGDHNYNACLQLWFSTRPLSSTHSL", "soluble on expression in E. coli": "soluble"},
      {"sequence": "MALLVTQPSEGLPPLAATSRSIYEAAYQLSQGTGPFAIDTERAGAYRYDDRAYLLQIRREGSGTVLIDPEANRRLVTSVLGKVINNQPWIIHAAATDLPCLSELGFYPSTIFDTELAGRLAGLPRVNLASMLEERLEVTLKKAHGAEDWSRRPLPHSWLVYAALDVEKLIPLAESMKLLLEAHGKLEWHKQECAHLINTSSHGLDTQRSWQDIKGVSRLTRPRQLVVAEALWELRDDEARMKNTSVSRLLPDKVLISVAQRPPRNSQAALRASEIPKQYRKRIARWMPTINDVLESDPRTWPHTPQFDENQLPSKYVWEKIHPESLDDFEEVKNSIVEKALLLNLPAENLMQPHSVKELCWQLRDVPRPIAQDDVIECLMRLEARPWQIDNSASVITDTLNKIEHAS", "soluble on expression in E. coli": "not soluble"},
      {"sequence": "MALNRMRQAKGAVASLLQNAYVHRDQVSLISFRGKQAQVLLPPSQSVDRAKRELDVLPTGGGTPLASALLTGWETAKQARAKGITQIMFVMITDGRGNIPLGAAYDPNATKASKEELEKEVEALALSIQADGIASIVVDTQMNYLSRGEAPKLAQKLGGRYFYLPNAKAEQIVEAALS", "soluble on expression in E. coli": "not soluble"},
      {"sequence": "MALPVTSSANQPTGTNNVAATKCKGCFCPGNPCQLCRLPPHTDDPIPENEPETCRLIREAVPPASFQPGENEYFANLDKATIQCIRSGDVIPNTRRVPGYPGRVYCKPGLPALGAH", "soluble on expression in E. coli": "not soluble"},
      {"sequence": "MALRDLSSSLSSSSSPELHVLAVDDSFVDRKVIERLLKISACKVTTVESGTRALQYLGLDGDNGSSGLKDLKVNLIVTDYSMPGLTGYELLKKIKESSALREIPVVIMSSENIQPRIEQCMIEGAEEFLLKPVKLADVKRLKELIMRGGEAEEGKTKKLSPKRILQNDIDSSPSSSSTSSSSSSHDVSSLDDDTPSSKRIKLESRG", "soluble on expression in E. coli": "not soluble"},
      {"sequence": "MALTATVRRAELQISDMDRGYYANHSLTLAQHPSETDERLMVRLLAFALFADDRLEFGRGLSNDDEPDLWRRDYTGDPDLWIDLGQPDESRVRKACNRSREAVVIGYGGQATETWWKKHANAMGRYRNLRVIELDSQATEALGALIQRGMRFDVIIQDGEVQMLADHGSVTLTPMVRQAPAE", "soluble on expression in E. coli": "soluble"},
      {"sequence": "MALTSDTQLNDIMRAAEAHKRIRGNLQKILKPGCSVREIIKYVEDSTRIMLHGEKNNGIGFPCGVSLNNVAAHFSLNPWNEDIILTKNDVLKIDFGTHSNGRIVDSAFSVSFDEKYTNLLLATKEATERGIKVIGIDMAVCEIGKEISEVFKSFEFEENGKMINIKPIWNLNGHSIDQYKIHAGISIPSINNGDYSRITPGFFAIETFASTGIGEIKDYGECSHFALASRPTTNKIYDKKNEEILNLIKKEFGTLPFSHQHLLYYTQNAKAAVQLLAARKFIDSYPPLVDIPKSYVAQFEHTLYITEKSKFNISKGDDYEGHHHHHH", "soluble on expression in E. coli": "soluble"},
      {"sequence": "MAMIKQILRLLFLLAMYELGKYVTEQVYIMMTANDDVEAPSDYVFRAEVSELEHHHHHH", "soluble on expression in E. coli": "not soluble"},
      {"sequence": "MAMVSEFLKQAWFIDNEEQEYIKTVKGSKGGPGSAVSPYPTFNPSSDVEALHKAITVKGVDEATIIEILTKRTNAQRQQIKAAYLQEKGKPLDEALKKALTGHLEEVALALLKTPAQFDADELRAAMKGLGTDEDTLNEILASRTNREIREINRVYKEELKRDLAKDITSDTSGDYQKALLSLAKGDRSEDLAINDDLADTDARALYEAGERRKGTDLNVFITILTTRSYPHLRRVFQKYSKYSKHDMNKVLDLELKGDIENCLTVVVKCATSKPMFFAEKLHQAMKGIGTRHKTLIRIMVSRSEIDMNDIKACYQKLYGISLCQAILDETKGDYEKILVALCGGD", "soluble on expression in E. coli": "soluble"},
      {"sequence": "MAMVSGRRSTLNPDAPLFIPAAVRQVEDFSPEWWQLVTTSTWYPDYWISQQQQGADGFYDNGENENGGGHIDVADLLPESFDFDDMEDFFDTDAAEFDQGFDGRMYYQAPSEFGFGKNGEMVKKSSGNRSPRSIVEPAKYAEKPAKWGNQRVAAAPRNIHQPR", "soluble on expression in E. coli": "soluble"},
      {"sequence": "MAMVVSSWRDPQDDVAGGNPGGPNPAAQAARGGGGGAGEQQQQAGSGAPHTPQTPGQPGAPATPGTAGDKGQGPPGSGQSQQHIECVVCGDKSSGKHYGQFTCEGCKSFFKRSVRRNLTYTCRANRNCPIDQHHRNQCQYCRLKKCLKVGMRREAVQRGRMPPTQPNPGQYALTNGDPLNGHCYLSGYISLLLRAEPYPTSRYGSQCMQPNNIMGIENICELAARLLFSAVEWARNIPFFPDLQITDQVSLLRLTWSELFVLNAAQCSMPLHVAPLLAAAGLHASPMSADRVVAFMDHIRIFQEQVEKLKALHVDSAEYSCLKAIVLFTSDACGLSDAAHIESLQEKSQCALEEYVRSQYPNQPSRFGKLLLRLPSLRTVSSSVIEQLFFVRLVGKTPIETLIRDMLLSGSSFNWPYMSIQCS", "soluble on expression in E. coli": "soluble"},
      {"sequence": "MANECRSLRNMETDGFQVVTEVVTHKLNHIPIFKGDFASLSPKVQRFVAEKAELMNPAGIYICDGSQKEYDDIVDKLVERGVLTPLKAYENNYLCRTDPRDVARVESKTWMVTKDKYDSVCHTPDGVRPIMGQWMSEEQFGVELDSRFPGCMAGRPMYVVPYSMGPIGGPLSKNGIELTDSPYVVLCMRTMTRMGTKVLEALGDNDFVRCIHSVGLPRPVKQKVINHWPCNPEKVMIAHRPKEREIWSFGSGYGGNSILGKKCFALRIACNIGRDEGWLAEHMLIMGVTNPEGEEKFIAAAFPSACGKTNLAMLTPTVPGWKVRVVGDDIAWMKFGADGRLYAINPEAGFFGVAPGTSHKTNAMAMESCRANTIFTNVAETADGEYFWEGLEKELKEAKGYTDEQLKHLEITNWLGERWHIGDEGKAAHPNSRFTAPAKQCPNIHPDWEAPQGVPIDAIVFGGRRPEGVPLVFESFSWEHGILVGALVKSETTAAAEFTGKNVMHDPMAMRPFMGYNYGKYLEHWIKLGKAPHKAPKIFHVNWFRETKDHKFLWPGFGDNIRVLDWILRRVAGGEEEIAIETAIGYVPKRGTINLDGLPRIDWNDLMSIPKDYWVEDVDESRHFLDTQVGSDLPQPIRDELDKLEKRVHAL", "soluble on expression in E. coli": "not soluble"},
      {"sequence": "MANKKIDHREEAIELLKQDAKRILQLIKVQMDNLTLPQCPAYEEVLDTQMYGLSREINFATRLGLIEPEEGKKLISTLEKELSALHELSMSKK", "soluble on expression in E. coli": "not soluble"},
      {"sequence": "MANKKNKVKFNICNVHYAPITVADEGKVSFGTPVAMPGAVSISMDPTGEPESFYADGIEYYVINNNQGYDGDLELAMIPETFRTDILKEEADSNNVLVENANSETGSFALLFEFDGDIRKIRHVLYNCSASRPTIESKTNEEDKEVQTETLTIKARPMADGYVKAKTGDSTTDTVYNNWYKSVYLPNSLEHHHHHH", "soluble on expression in E. coli": "soluble"},
      {"sequence": "MANLATVERYVSAAAQRGADMVVFPEATMQGFGTGRLDRVAERIDGPFATRICQLARELNIVIVVGMFSPADTHDGKQRINNVALIAHPDSVREYRKIHTYDAFGFKESDTVRPGNQLVTFPVGDVTCGIAVCYDVRFPQQFIDLARLGAEVIVLPASWADGEGKLEQWRTLTAARALDSTSYIVACDQAVAEDERAPGAPTGVGHSAVVTPDGRRIAEAGTGEELFMVNVNRDLVRRTREAIPVLADAGYNQNGE", "soluble on expression in E. coli": "not soluble"},
      {"sequence": "MANTGCLSPGAFLSKVPEFFQTANEKHITVRLTAKRLIEHDPVEGNLEFDSTNHPDYDVSKKASEISVSSRSDREYPLLIRMSYGSHDKKTKCSTVVKASELDQFWQEYSSVFKGGMQNLIKKKKKKSKNGTISKTGKKNKVAKKN", "soluble on expression in E. coli": "not soluble"},
      {"sequence": "MANVVAEGAYPYCRLTDQPLSVDEVLAAVSGPEQGGIVIFVGNVRDHNAGHDVTRLFYEAYPPMVIRTLMSIIGRCEDKAEGVRVAVAHRTGELQIGDAAVVIGASAPHRAEAFDAARMCIELLKQEVPIWKKEFSSTGAEWVGDRP", "soluble on expression in E. coli": "soluble"},
      {"sequence": "MAPAPRFSAEEQERLIICAAIKAIEESSLLDFSMSAIAKLAGLSMGSVYKFVQCKEDVLIALATRMYQERQSVFKKVLALPLTTPERIIATSLLDFSKVQMYNFDNQLESIVNTEAMMKRCSERWLTQMIACGERCQTMFQQFLQNAADSGELTSGSRDIEEINLGTWSLSVGYFQTVRLHQCWHNDLDENIDGINDEENEKNTLVLAADNAHIRTMKRLVNTYDWQQKISDDDIEKVCLHLADAALR", "soluble on expression in E. coli": "not soluble"},
      {"sequence": "MAPLKRRKVSAPTGNENTPRSTRSIRHKREDPRGKMKPLATSTRTSSVNKKKKNDDDYENFYSGENTITTMKPVVFPKKPVIFEHGYGIEDDIEDEIDDEELDDEEYEESGNGNEDEVEEEVGVEEQEIENNFAYKKVKSEISCSPFLKEHSVHSVLTNNRAKTGTIDSKAGRTAYRKQKLREGTCCSQSNEATGDSTDRSSTSAGFDVFQHLQNRAVQKTMIEQLESAVRNQDVMEMGNVVKKGLENGTLSEIQIEEFCKHTTRPNFSILQFVQALRQSTEDEKESIQIAQMMMFKMQDPKDGNYTALAANVHTLTSKISKQLNAGCIVKRTLTMNHTISQADGFPTCNLTDIYNSELLIGGDAVSQLSNFYMVALKTMLEPSYKIWAFTYRPSCVRRVDRHFQELPQKVTTAIIEVAFDIVGVYLPVELSYGSIDREHEFIKTLGEGAELEVQRRRDERITVFKNAVEALGKAMNNLRTYHFDIAKGALFNCNKPSYCEHHLKWGQVRKFREQHQRMETSPEEVIRFATGQRNEHDVSAAGRSVKDSTH", "soluble on expression in E. coli": "not soluble"}
    ]}
  ]
}
